Measured values as given in patent US20160186238A1.

Target: trypsin (bovine) (UniProt P00760)
Test: trypsin activity inhibition, fluorogenic substrate Z-Arg-AMC, fit of activity vs inhibitor concentration

trypsin (bovine), sequence (P00760 24-246): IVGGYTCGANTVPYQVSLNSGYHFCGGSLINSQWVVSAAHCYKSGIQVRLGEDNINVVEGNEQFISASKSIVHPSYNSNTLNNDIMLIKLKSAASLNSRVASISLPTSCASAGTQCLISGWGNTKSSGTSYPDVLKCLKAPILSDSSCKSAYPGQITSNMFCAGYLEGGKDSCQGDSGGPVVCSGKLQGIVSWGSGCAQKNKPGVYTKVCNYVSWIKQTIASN

Ki: 39.5 nM
Substance: antipain (peptide)
